{
  "source": "patent US20250277199",
  "about": "“NOVEL CRISPR-CAS NUCLEASES FROM METAGENOMES” (Brain Biotech AG, published 2025)",
  "target": "T1, BMC10 (uncultured bacterium (metagenome))",
  "T1 chain": "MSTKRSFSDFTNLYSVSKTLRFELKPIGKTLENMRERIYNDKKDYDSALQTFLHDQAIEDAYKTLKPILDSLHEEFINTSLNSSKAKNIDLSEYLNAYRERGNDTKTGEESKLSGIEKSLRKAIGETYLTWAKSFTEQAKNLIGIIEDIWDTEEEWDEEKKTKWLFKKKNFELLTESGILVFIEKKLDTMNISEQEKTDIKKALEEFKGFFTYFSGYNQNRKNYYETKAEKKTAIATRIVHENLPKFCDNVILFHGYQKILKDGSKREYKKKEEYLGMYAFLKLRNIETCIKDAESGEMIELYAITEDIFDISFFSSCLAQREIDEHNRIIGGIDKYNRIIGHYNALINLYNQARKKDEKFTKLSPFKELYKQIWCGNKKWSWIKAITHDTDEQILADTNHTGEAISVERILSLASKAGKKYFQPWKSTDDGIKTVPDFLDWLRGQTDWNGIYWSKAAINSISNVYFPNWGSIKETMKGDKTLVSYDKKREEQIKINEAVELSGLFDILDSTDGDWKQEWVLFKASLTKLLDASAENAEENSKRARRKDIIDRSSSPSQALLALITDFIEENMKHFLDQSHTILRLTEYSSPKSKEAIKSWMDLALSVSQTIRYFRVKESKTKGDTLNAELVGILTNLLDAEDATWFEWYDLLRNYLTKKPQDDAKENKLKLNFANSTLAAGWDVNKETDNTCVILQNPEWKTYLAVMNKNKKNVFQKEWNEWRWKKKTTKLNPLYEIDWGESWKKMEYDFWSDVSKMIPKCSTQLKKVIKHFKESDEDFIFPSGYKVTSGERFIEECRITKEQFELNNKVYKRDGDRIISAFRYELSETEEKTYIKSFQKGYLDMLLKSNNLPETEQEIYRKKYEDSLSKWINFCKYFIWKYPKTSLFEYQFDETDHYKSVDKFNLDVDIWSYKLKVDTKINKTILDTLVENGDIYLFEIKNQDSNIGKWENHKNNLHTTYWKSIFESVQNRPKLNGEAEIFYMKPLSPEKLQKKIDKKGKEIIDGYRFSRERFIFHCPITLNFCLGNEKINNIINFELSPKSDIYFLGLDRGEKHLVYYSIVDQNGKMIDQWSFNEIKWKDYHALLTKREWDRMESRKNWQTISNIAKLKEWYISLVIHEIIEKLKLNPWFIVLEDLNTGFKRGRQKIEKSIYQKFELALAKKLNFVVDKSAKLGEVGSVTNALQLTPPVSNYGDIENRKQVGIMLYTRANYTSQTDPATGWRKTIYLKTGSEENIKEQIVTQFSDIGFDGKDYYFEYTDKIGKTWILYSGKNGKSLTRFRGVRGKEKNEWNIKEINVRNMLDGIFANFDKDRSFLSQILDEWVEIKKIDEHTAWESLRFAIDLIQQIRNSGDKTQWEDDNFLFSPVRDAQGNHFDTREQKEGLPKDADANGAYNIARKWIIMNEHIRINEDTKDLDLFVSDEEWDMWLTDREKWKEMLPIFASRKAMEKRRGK",
  "experiment": "cell_activity; PAM not stated; E. coli depletion, 30 C",
  "procedure": "Overnight grown pre-cultures were diluted into fresh 60 ml LB-Kanamycin (25 μg/ml) (Example 4) or LB-Kanamycin (25μg/ml)/Nourseothricin (50 μg/ml) medium (Example 5) to obtain an optical density at 600 nm (OD600) of 0.06. The inoculated medium was incubated at 30° C. on a horizontal shaker at 250 rpm until the culture reached an optical density at OD600 of 0.2. For induced BMC (NN) nuclease expression, 600 μl 20% L-(+)-arabinose (w/v) was added to the culture at a final concentration of 0.2% (v/v). The cultivation was continued until the culture reached an optical density at OD600 of 0.5. Subsequently 50 ml culture was transferred into one 50 ml conical tube and harvested by centrifugation at 4° C. for 5 min and 4000×g. Pelleted cells were resuspended in 50 ml ultrapure water (ice-cold) and centrifuged at 4° C. for 5 min and 4000×g.\nThis washing procedure was repeated twice. Washed cells were resuspended in 25 ml 10% (w/w) glycerin and re-centrifuged at 4° C. for 5 min and 4000×g. The pelleted cells were resuspended in 5 ml 10% (w/w) glycerin. After the final centrifugation step at 4° C. for 5 min and 4000×g, the cells were resuspended in 125 μl 10% (w/w) glycerin. Aliquots of 25 μl competent cells were stored at −80° C. until use. For the transformation procedure, aliquots of competent cells were thawed on ice and 50-100 ng plasmid DNA (CRISPR/gRNA-Ec) was added. Prepared cells were electroporated at 1800 V, 25 μF and 200 Ω in 1 mm gap size electroporation cuvettes, using the Bio-Rad Gene Pulser Xcell Electroporation System. Subsequently, 975 μL of NEB® 10-beta/Stable Outgrowth Medium was added immediately after the pulse to the transformed cells. Regeneration was done at 30° C. on a horizontal shaker at 250 rpm. Finally, 25-100 μl of the cell suspension was plated onto selective M9-Glucose agar plates supplemented with Kanamycin (25 μg/ml)/Ampicillin (100 μg/ml) (Example 4) or Kanamycin (25 μg/ml)/Ampicillin (100 μg/ml)/Nourseothrin (50 μg/ml) (Example 5). Growth of transformed E. coli cells on selective agar plates was screened for 48 h at 30° C.\nAs described above, each of the BMC01, BMC02, BMC03, BMC04, BMC05, BMC07, BMC08, BMC09, BMC10, BMC11, BMC12, BMC13, BMC14, or BMC15 nucleases was co-transformed into E. coli with a gRNA targeting the E. coli malQ gene to visualize a) the activity and b) the DNA targeting efficiency of the BMC nucleases.",
  "data": [
    {"binder": "malQ gRNA (BMC stem-loop + 24 nt spacer) ; malQ protospacer (ssRNA ; dsDNA) RNA: GAUUUCUACUAUUGUAGAUGUGGCGGUACGUUGAUGCAUCGCG DNA 1: GTGGCGGTACGTTGATGCATCGCG DNA 2: CGCGATGCATCAACGTACCGCCAC", "values": [
      {"measurement": "activity", "result": "> 99.9", "unit": "% colony reduction"}
    ]}
  ]
}
